Data as given in article PMC11855083.

Target: T1, His6-NfxB (Pseudomonas aeruginosa PAO1?) (UniProt P32265)
T1 sequence: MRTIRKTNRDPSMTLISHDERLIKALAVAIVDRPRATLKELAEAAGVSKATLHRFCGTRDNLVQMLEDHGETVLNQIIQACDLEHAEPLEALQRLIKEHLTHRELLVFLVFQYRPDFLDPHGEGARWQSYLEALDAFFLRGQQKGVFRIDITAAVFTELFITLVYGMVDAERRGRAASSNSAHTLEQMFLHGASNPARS
Assay: EMSA
Conditions: pH 7.0, room temperature, 10 min ([…]

Sequence	binding
TCCAAGCTGCCTTCGGCCAAAGAGGCCTGAGGCATTCAACGACAGCGCCTGCCATGGTGGCGGGCGCTTGCATAGCGTAGTGGCGCGAGCCACACGGGAGGAAAGATGGCTGTTGATATGTTCATCAAGATCGGC (double strand) [hcp1 promoter (phcp1)]	binds
ACGCAAATCAGCCATGACACACCCGACCGTTGATTGAAAACGGATCGAATGGTACTTTTTCGAGCTAATTGAGTCAATATTGTCTCAAATGATCTTTTGACAGCTAATTCCTTTGGACGCGAGGCCAGTTTTCTGCACAATGCGCACAATCAGAAAAACCAACCGGGACCCATCGATGACCCTGAT (double strand) [mexC promoter]	binds
ATCTTTCCTCCCGTGTGGCTCGCGCCACTACGCTATGCAAGCGCCCGCCACCATGGCAGGCGCTGTCGTTGAATGCCTCAGGCCTCTTTGGCCGAAGGCAGCTTGGA (double strand) [hcp1T (hcp1 promoter with potential NfxB motif truncated)]	no binding
